# Experiment: soluble on expression in E. coli; label from the status in PepcDB or PDB records
row,Sequence,soluble on expression in E. coli
1,GPGSMQRHRTPEPGPRGASSQNPRRPPQTSAKSPARRVSRRSSAATTSAPGGIELTRAQQIEAKAARDAVVGAMTKSSPQAAKMFVESISLDVDVETTRQLLCSKKGFVALPSSIGVLCRQLRKLDLSGNGLTDLSPLATLQHLSNLNVAHNGLLASLKGLSGTCLSVLNISFCAVESLEGLEHTALTLRTFIANDNRLQLHSPLLADVVATAGEDAAEMEAAREHLPESLCRSSSHSGADLRAVAQRNYAIFSTFQQCETVVLSRNTRLCQLFPTWGVEEVAAECGEVPGRSSAAADDEGSDDAADGASTTMSADGDGGDSANRGKKHRASAAKRRDRRRIAVHPTDRSASNTPAAAREPFGDSPEMATYNQRRHALALAHPLSVFERLSRLRKLSLSGCELHSLPVRWFLPMVTELRLAQNHLTSLQPDGVILRSLHILDISNNLFASVASLRRCRYLEQLNVRGNPLIEEGVLQDKAAGLTTAERIADVAATTPSSGTSAAPIAVQQRLLRLFPNMKLLDGQPMMTAGQVRSAYMQRNARSAAERQDKLTEKGCSDGSAIVASLHEARDDVGNAHAASDDSERGSSSGDAPRTAPTARAEARSPARKARRADSAVIAAEADEKDNVVEAPLSVVKTAHAQIVRRERVLLRPGAAAASGSNTGAAGQKRKAGQTPTSPAAVVYGQAAVAKLLEQSRSRSAW,not soluble
2,GPGSMQVINENSLREFYAHVYPVELVTQWLSYRLSQPRLSAGSSVAVVKGEPTAVSGEESKDGVRHVLGIKAEPCDAVGAAAGADDEDKEWLNGKGAAAAEGYLARREFCFTLIGDIFTRFRSYRSSEELRAELVRCFPEKIDVGAVYNIRPNQKQGLANVFPVERELVFDIDMSDYDNVRSCCSGKSICSYCWAWMSCAAHVLHTVLRDDFGFKYILPVFSGRRGIHLWVCDRRARRMTNDERTALVGYLTVVAPKTLRSTIVADLANHRLIHPTIRHVLRTQLDRAFTSLFVASSSDNPNNIQHHPTAAYIVHDATSAVLKLGRRDALNRFQQHVHFQQGNVLDWATYLRALGSEQEATDILHAVQLLLMYPRLDEHVSTRRDHLLKLPFCVHPGTASLCCPLEWDEVDGFHPTEDAPKLHEMLLSRSLDVRWTLPLERMLKDMRTDEDENSS,not soluble
3,GPGSMRSVIRSCVIFPAAGVAMRHDSSQQWVLNVMYGTGLAPRYGSWKSFGVGDALKENDTPVLYCKALVHASGGGRRARDWVAGCSAALFPSYELLKIAMRHNSSEEDVERYRRHLVETLEKAQGPQTGSANDAGNVTSGEDGSKSDTENDTDINMRLSQMPEVRCFVYDAMRAACFHRYKKVPEEQRVKLFTVAARLGLDEGTTMAIWRLVEKEGIVARDKQRALESPWND,soluble
4,GPGSMSAHSAARRWTNLAGIGSCHPRHHHYPTSTKEVQDAVELVRSQNGKCRVAGAGKSPNTATFTNEHLIHMERMNRILSIDTVAHTITCEAGAVMEEVMRSVDKVGLMVRCVPSYVRTTVGGCIATATHSSGIQCHCLSDYVRGLKIVDGCAQIRTLVAGKDDAELRLAACHLGVMGIVTEVTLEVQPRIQWKLVSQPLLMKDATNAALVAEKVKSTEYYRWWWVPHTDGCYESYGRVESTTGISALPPLPDALTAQDDAPVQLSPAALQEESRTNESAERAGDRSISLIVKSALKYIATDFVRHQVVECSLYAACLCPAIQPYVNKAYRRAFFSAPQVQRGSALECFTFDCLFKQWANEWAIDASRAVEAFNRLRDMIDREGMLLHFPVEFRFTAPDVSDMSPAVGRPTCWIGVVMYRPYGQEARDTRRCYDGFCRVMEEMGGRPHWAKYYDWGHREITATYGDHWERFLALRRRMDPDDIFVNGWFRNLMSPDRVNSTACTP,not soluble

# — the DeepSol protein solubility set
